# Measurements as given in publication PMC8397727, “The structure of the bacterial DNA segregation ATPase filament reveals the conformational plasticity of ParA upon DNA binding” (Nature Communications, 2021).
# Biological target: Vibrio cholerae chromosome 2 ParA (ParA2vc) (Vibrio cholerae)
# Experiment: negative-stain EM; ParA2vc 1 mg/ml with or without 3.5 mM nucleotide and MgCl2, 30 °C 15 min, diluted 1/100 in 100 mM NaCl, 50 mM Tris pH 7.5; no DNA; 2D classification of particles; monomers to dimer
substance,measurement,value
Vibrio cholerae chromosome 2 ParA (ParA2vc),stoichiometry N,2
